In the Human Domainome abundance scans (Beltran et al. 2025):
± gives the uncertainty stated by the source.

B1: Homeobox protein cut-like 1, residues 941 to 1008; numbered along this chain, P39880 (parent)
chain: QEVDTIELTRQVKEKLAKNGICQRIFGEKVLGLSQGSVSDMLSRPKPWSKLTQKGREPFIRMQLWLNG

Variants of: B1
Assay: abundance fitness (aPCA) (normalised: wild type 0, dead -1); higher = more abundant; growth selection in yeast, the domain comes from the species named
Conditions: Homo sapiens

Q: Which abundance fitness does the source give for QEVDTWELTRQVKEKLAKNGICQRIFGEKVLGLSQGSVSDMLSRPKPWSKLTQKGREPFIRMQLWLNG here?
A: Its abundance fitness is -0.368 ± 0.074.

Q: For QEVDTYELTRQVKEKLAKNGICQRIFGEKVLGLSQGSVSDMLSRPKPWSKLTQKGREPFIRMQLWLNG, which abundance fitness is on record?
A: The abundance fitness was -0.129 ± 0.081.

Q: Which abundance fitness does the source give for QEVDTIALTRQVKEKLAKNGICQRIFGEKVLGLSQGSVSDMLSRPKPWSKLTQKGREPFIRMQLWLNG here?
A: Its abundance fitness is 0.14 ± 0.47.

Q: With QEVDTIILTRQVKEKLAKNGICQRIFGEKVLGLSQGSVSDMLSRPKPWSKLTQKGREPFIRMQLWLNG as the variant, how does the abundance fitness read?
A: The abundance fitness was -0.565 ± 0.37.

Q: With QEVDTISLTRQVKEKLAKNGICQRIFGEKVLGLSQGSVSDMLSRPKPWSKLTQKGREPFIRMQLWLNG as the variant, how does the abundance fitness read?
A: The abundance fitness was 0.172 ± 0.3.

Q: With QEVDTIEATRQVKEKLAKNGICQRIFGEKVLGLSQGSVSDMLSRPKPWSKLTQKGREPFIRMQLWLNG as the variant, how does the abundance fitness read?
A: The abundance fitness was 0.051 ± 0.069.

Q: Which abundance fitness does the source give for QEVDTIECTRQVKEKLAKNGICQRIFGEKVLGLSQGSVSDMLSRPKPWSKLTQKGREPFIRMQLWLNG here?
A: Its abundance fitness is -0.205 ± 0.094.

Q: For QEVDTIEDTRQVKEKLAKNGICQRIFGEKVLGLSQGSVSDMLSRPKPWSKLTQKGREPFIRMQLWLNG, which abundance fitness is on record?
A: The abundance fitness was 0.076 ± 0.11.

Q: For QEVDTIEETRQVKEKLAKNGICQRIFGEKVLGLSQGSVSDMLSRPKPWSKLTQKGREPFIRMQLWLNG, which abundance fitness is on record?
A: Its abundance fitness is 0.011 ± 0.083.

Q: With QEVDTIEFTRQVKEKLAKNGICQRIFGEKVLGLSQGSVSDMLSRPKPWSKLTQKGREPFIRMQLWLNG as the variant, how does the abundance fitness read?
A: Its abundance fitness is -0.152 ± 0.067.

Q: With QEVDTIEGTRQVKEKLAKNGICQRIFGEKVLGLSQGSVSDMLSRPKPWSKLTQKGREPFIRMQLWLNG as the variant, how does the abundance fitness read?
A: The abundance fitness was 0.039 ± 0.081.

Q: For QEVDTIEITRQVKEKLAKNGICQRIFGEKVLGLSQGSVSDMLSRPKPWSKLTQKGREPFIRMQLWLNG, which abundance fitness is on record?
A: The abundance fitness was 0.131 ± 0.096.

Q: With QEVDTIEKTRQVKEKLAKNGICQRIFGEKVLGLSQGSVSDMLSRPKPWSKLTQKGREPFIRMQLWLNG as the variant, how does the abundance fitness read?
A: Its abundance fitness is 0.04 ± 0.078.

Q: With QEVDTIEMTRQVKEKLAKNGICQRIFGEKVLGLSQGSVSDMLSRPKPWSKLTQKGREPFIRMQLWLNG as the variant, how does the abundance fitness read?
A: The abundance fitness was 0.019 ± 0.06.

Q: With QEVDTIENTRQVKEKLAKNGICQRIFGEKVLGLSQGSVSDMLSRPKPWSKLTQKGREPFIRMQLWLNG as the variant, how does the abundance fitness read?
A: The abundance fitness was 0.011 ± 0.092.

Q: For QEVDTIEPTRQVKEKLAKNGICQRIFGEKVLGLSQGSVSDMLSRPKPWSKLTQKGREPFIRMQLWLNG, which abundance fitness is on record?
A: Its abundance fitness is -0.007 ± 0.062.

Q: For QEVDTIEQTRQVKEKLAKNGICQRIFGEKVLGLSQGSVSDMLSRPKPWSKLTQKGREPFIRMQLWLNG, which abundance fitness is on record?
A: The abundance fitness was -0.032 ± 0.075.

Q: For QEVDTIERTRQVKEKLAKNGICQRIFGEKVLGLSQGSVSDMLSRPKPWSKLTQKGREPFIRMQLWLNG, which abundance fitness is on record?
A: Its abundance fitness is -0.01 ± 0.055.

Q: For QEVDTIESTRQVKEKLAKNGICQRIFGEKVLGLSQGSVSDMLSRPKPWSKLTQKGREPFIRMQLWLNG, which abundance fitness is on record?
A: The abundance fitness was -0.002 ± 0.051.

Q: With QEVDTIETTRQVKEKLAKNGICQRIFGEKVLGLSQGSVSDMLSRPKPWSKLTQKGREPFIRMQLWLNG as the variant, how does the abundance fitness read?
A: Its abundance fitness is 0.003 ± 0.062.

Q: For QEVDTIEVTRQVKEKLAKNGICQRIFGEKVLGLSQGSVSDMLSRPKPWSKLTQKGREPFIRMQLWLNG, which abundance fitness is on record?
A: The abundance fitness was 0.038 ± 0.064.

Q: With QEVDTIEWTRQVKEKLAKNGICQRIFGEKVLGLSQGSVSDMLSRPKPWSKLTQKGREPFIRMQLWLNG as the variant, how does the abundance fitness read?
A: Its abundance fitness is -0.157 ± 0.078.

Q: With QEVDTIEYTRQVKEKLAKNGICQRIFGEKVLGLSQGSVSDMLSRPKPWSKLTQKGREPFIRMQLWLNG as the variant, how does the abundance fitness read?
A: Its abundance fitness is -0.089 ± 0.089.

Q: With QEVDTIELARQVKEKLAKNGICQRIFGEKVLGLSQGSVSDMLSRPKPWSKLTQKGREPFIRMQLWLNG as the variant, how does the abundance fitness read?
A: The abundance fitness was 0.026 ± 0.063.

Q: For QEVDTIELCRQVKEKLAKNGICQRIFGEKVLGLSQGSVSDMLSRPKPWSKLTQKGREPFIRMQLWLNG, which abundance fitness is on record?
A: Its abundance fitness is -0.087 ± 0.093.

Q: For QEVDTIELDRQVKEKLAKNGICQRIFGEKVLGLSQGSVSDMLSRPKPWSKLTQKGREPFIRMQLWLNG, which abundance fitness is on record?
A: The abundance fitness was -0.168 ± 0.14.

Q: Which abundance fitness does the source give for QEVDTIELERQVKEKLAKNGICQRIFGEKVLGLSQGSVSDMLSRPKPWSKLTQKGREPFIRMQLWLNG here?
A: The abundance fitness was -0.191 ± 0.089.

Q: With QEVDTIELGRQVKEKLAKNGICQRIFGEKVLGLSQGSVSDMLSRPKPWSKLTQKGREPFIRMQLWLNG as the variant, how does the abundance fitness read?
A: The abundance fitness was -0.047 ± 0.063.

Q: With QEVDTIELHRQVKEKLAKNGICQRIFGEKVLGLSQGSVSDMLSRPKPWSKLTQKGREPFIRMQLWLNG as the variant, how does the abundance fitness read?
A: The abundance fitness was -0.142 ± 0.12.

Q: For QEVDTIELIRQVKEKLAKNGICQRIFGEKVLGLSQGSVSDMLSRPKPWSKLTQKGREPFIRMQLWLNG, which abundance fitness is on record?
A: The abundance fitness was -0.113 ± 0.086.

Q: For QEVDTIELKRQVKEKLAKNGICQRIFGEKVLGLSQGSVSDMLSRPKPWSKLTQKGREPFIRMQLWLNG, which abundance fitness is on record?
A: The abundance fitness was -0.109 ± 0.079.

Q: For QEVDTIELLRQVKEKLAKNGICQRIFGEKVLGLSQGSVSDMLSRPKPWSKLTQKGREPFIRMQLWLNG, which abundance fitness is on record?
A: Its abundance fitness is -0.405 ± 0.046.

Q: With QEVDTIELMRQVKEKLAKNGICQRIFGEKVLGLSQGSVSDMLSRPKPWSKLTQKGREPFIRMQLWLNG as the variant, how does the abundance fitness read?
A: Its abundance fitness is -0.384 ± 0.069.

Q: Which abundance fitness does the source give for QEVDTIELNRQVKEKLAKNGICQRIFGEKVLGLSQGSVSDMLSRPKPWSKLTQKGREPFIRMQLWLNG here?
A: Its abundance fitness is -0.348 ± 0.15.

Q: For QEVDTIELPRQVKEKLAKNGICQRIFGEKVLGLSQGSVSDMLSRPKPWSKLTQKGREPFIRMQLWLNG, which abundance fitness is on record?
A: The abundance fitness was -0.28 ± 0.068.

Q: For QEVDTIELRRQVKEKLAKNGICQRIFGEKVLGLSQGSVSDMLSRPKPWSKLTQKGREPFIRMQLWLNG, which abundance fitness is on record?
A: The abundance fitness was -0.212 ± 0.049.

Q: For QEVDTIELSRQVKEKLAKNGICQRIFGEKVLGLSQGSVSDMLSRPKPWSKLTQKGREPFIRMQLWLNG, which abundance fitness is on record?
A: Its abundance fitness is -0.149 ± 0.053.

Q: Which abundance fitness does the source give for QEVDTIELWRQVKEKLAKNGICQRIFGEKVLGLSQGSVSDMLSRPKPWSKLTQKGREPFIRMQLWLNG here?
A: The abundance fitness was -0.197 ± 0.074.

Q: With QEVDTIELYRQVKEKLAKNGICQRIFGEKVLGLSQGSVSDMLSRPKPWSKLTQKGREPFIRMQLWLNG as the variant, how does the abundance fitness read?
A: The abundance fitness was -0.577 ± 0.13.

Q: For QEVDTIELTAQVKEKLAKNGICQRIFGEKVLGLSQGSVSDMLSRPKPWSKLTQKGREPFIRMQLWLNG, which abundance fitness is on record?
A: Its abundance fitness is -0.096 ± 0.063.
